Changes are numbered by the printed parent chain. Where “and” joins values, the source holds several entries; their conditions need not be identical. Equal entries are not always repeated.
Legend:
human IL-4 [1] = biological target: T1, human IL-4 (human, UniProt P05112 25-153, biotinylated in the receptor binding assay and on the Biacore chip); experiment: IL-4 RBA: ELISA, IL-4R/Fc coated, biotinylated IL-4
T1 construct: also called interleukin-4; biotinylated IL-4
T1 sequence (looked up): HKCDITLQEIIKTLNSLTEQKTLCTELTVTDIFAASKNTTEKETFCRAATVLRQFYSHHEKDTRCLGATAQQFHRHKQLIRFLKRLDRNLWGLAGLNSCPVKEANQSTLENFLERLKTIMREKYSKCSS
Text: (§1) The wells were washed three times with 0.1% (v/v) Tween 20 in PBS, followed by three washes with PBS, before blocking with 2% (w/v) BSA in PBS. […] The reaction was stopped by the addition of HCl and the absorbance read at 450 nm.

human IL-4 [2] = biological target: T1, human IL-4; experiment: DOM9 RBA (IL-4 RBA)
Text: as §1

human IL-13 = biological target: T2, human IL-13 (human, UniProt P35225 35-146, biotinylated on the Biacore chip); experiment: Dom10 RBA (IL-13 sandwich ELISA per paragraph 471)
T2 construct: also called hIL-13; recombinant human IL-13
Protocol: A MAXISORP™ plate (high protein binding ELISA plate, Nunc, Denmark) was coated overnight with 2.5 μg/ml coating antibody (Module Set, Bender MedSystems, Vienna, Austria), then washed once with 0.05% (v/v) Tween 20 in PBS before blocking with 0.5% (w/v) BSA 0.05% (v/v) Tween 20 in PBS. […] The plate was then incubated with TMB substrate (KPL, Gaithersburg, USA), and the reaction was stopped by the addition of HCl and the absorbance read at 450 nm.

T2 sequence (P35225 35-146 limits assumed): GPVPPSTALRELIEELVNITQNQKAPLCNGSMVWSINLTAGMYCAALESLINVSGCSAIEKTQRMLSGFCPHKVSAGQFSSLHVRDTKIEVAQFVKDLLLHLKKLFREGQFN

B1: DOM9-155 (other)
VL: DIQMTQSPSSLSASVGDRVTITCRASLDIGDWLHWYQQKPGKAPKLLIGWGSGLQSGVPSRFSGSGSGTDFTLTISSLQPEDFATYYCLQEGLGPPTFGQGTKVEIKR
notes: Vk dAb
For B1, the IC50 (human IL-4 [1]) was 100 nM.

B2: DOM10-213-TVAAPS-DOM9-155-78 (bispecific antibody)
chain: DIQMTQSPSSLSASVGDRVTITCRASQAIPWGLNWYQQKPGKAPKLLIYDVSSLQSGVPSRFSGSGSGTDFTLTISSLQPEDFATYYCQQDIHIPMTFGQGTKVEIKRTVAAPSDIQMTQSPSSLSASVGDRVTITCRASRHIGDWLHWYQQKPGKAPKLLIAWASTLDSGVPSRFSGSGSGTDFTLTISSLQPEDFATYYCLQEGWGPPTFGQGTKVEIKR
notes: in-line fusion, from pDOM5
B2 gave an IC50 (human IL-4 [2]) of 6.91 nM and an EC50 (human IL-13) of 62 nM.

B3: DOM10-215-TVAAPS-DOM9-155-78 (bispecific antibody)
chain: DIQMTQSPSSLSASVGDRVTITCRASQNIFADLNWYQQKPGKAPKLLIYMGSRLQSGVPSRFSGSGSGTDFTLTISSLQPEDFATYYCQQDYKFPLTFGQGTKVEIKRTVAAPSDIQMTQSPSSLSASVGDRVTITCRASRHIGDWLHWYQQKPGKAPKLLIAWASTLDSGVPSRFSGSGSGTDFTLTISSLQPEDFATYYCLQEGWGPPTFGQGTKVEIKR
notes: in-line fusion, from pDOM5
B3 gave an IC50 (human IL-4 [2]) of 6.65 nM and an EC50 (human IL-13) of 10.8 nM.

B4: DOM9-112-210-ASTKGPS-DOM10-212 (bispecific antibody)
chain: EVQLLESGGGLVQPGGSLRLSCAASGFTFRNFGMGWVRQAPGKGLEWVSWIISSGTETYYADSVKGRFTISRDNSKNTLYLQMNSLRAEDTAVYYCAKSLGRFDYWGQGTLVTVSSASTKGPSDIQMTQSPSSLSASVGDRVTITCRASSVILNELHWYQQKPGKAPKLLISAVSRLQSGVPSRFSGSGSGTDFTLTISSLQPEDFATYYCLQTFWGPFTFGQGTKVEIKR
notes: in-line fusion, from pDOM5
B4 gave an IC50 (human IL-4 [2]) of 3.21 nM and an EC50 (human IL-13) of 1000 nM.

B5: DOM9-112-210-DOM10-270 (bispecific antibody)
chain: B4 chain with F219Y
notes: in-line fusion, from pDOM5
B5 showed an IC50 (human IL-4 [2]) of 2.79 nM and an EC50 (human IL-13) of 398 nM.

B6: DOM10-416-ASTKGPS-DOM9-155-78 (bispecific antibody)
chain: EVQLLESGGGLVQPGGSLRLSCAASGFTFKGSEMDWVRQAPGKGLEWVSTISADGRETYYADSVKGRFTISRDNSKNTLYLQMNSLRAEDTAVYYCAKSYTSFDYWGQGTLVTVSSASTKGPSDIQMTQSPSSLSASVGDRVTITCRASRHIGDWLHWYQQKPGKAPKLLIAWASTLDSGVPSRFSGSGSGTDFTLTISSLQPEDFATYYCLQEGWGPPTFGQGTKVEIKR
notes: in-line fusion, from pDOM5
For B6, the IC50 (human IL-4 [2]) was 5.88 nM and the EC50 (human IL-13) was 444 nM.

B7: DOM9-112 (other)
VH: EVQLLESGGGLVQPGGSLRLSCAASGFTFRNYGMAWVRQAPGKGLEWVSWIDASGTETYYADSVKGRFTISRDNSKNTLYLQMNSLRAEDTAVYYCAKSLGRFDYWGQGTLVTVSS
notes: VH dAb
With B7 the IC50 (human IL-4 [2]) was 3.6 nM and the IC50 (human IL-4 [1]) was 3 nM.

B8: DOM9-112-168 (other)
VH: B7 VH with D52E, A53G, S54G
notes: VH dAb
B8 was tested, and the IC50 (human IL-4 [1]) was 1.22 nM and 0.64 nM.

B9: DOM10-236-ASTKGPS-DOM9-155-78 (bispecific antibody)
chain: EVQLLESGGGLVQPGGSLRLSCAASGFTFPKYDMMWVRQAPGKGLEWVSSIDHLGVNTYYADSVKGRFTISRDNSKNTLYLQMNSLRAEDTAVYYCAKESDWPSFDYWGQGTLVTVSSASTKGPSDIQMTQSPSSLSASVGDRVTITCRASRHIGDWLHWYQQKPGKAPKLLIAWASTLDSGVPSRFSGSGSGTDFTLTISSLQPEDFATYYCLQEGWGPPTFGQGTKVEIKR
notes: in-line fusion, from pDOM5
With B9 the IC50 (human IL-4 [2]) was 2.54 nM and the EC50 (human IL-13) was 372 nM.

B10: DOM9-44 (other)
VL: DIQMTQSPSSLSASVGDRVTITCRASQNINFWLRWYQQKPGKAPTLLIYDASALQSGVPSRFSGSGSGTDFTLTISSLQPEDFATYYCQQDFNPPYTFGQGTKVEIKR
notes: Vk dAb
Binder B10 has an IC50 (human IL-4 [1]) of 122 nM.
